Here are results for one substance from publication PMC3059804.

Like-named read-outs stand apart in the source and are kept apart here.

Common to all, as to assay: enzyme inhibition kinetics
Experiment [1] deals with human LSD1-CoREST complex (LSD1 residues 171-836 with CoREST residues 308-440) (human) (UniProt O60341).
The target is the same in experiment [2]. The source holds these as a separate data set.
The target in experiment [3] is recombinant mouse LSD2 (mouse) (UniProt Q8CIG3).
Experiment [4] concerns the target human LSD1-CoREST complex (LSD1 residues 171-836 with CoREST residues 308-440) (human) (UniProt O60341). The source holds these as a separate data set.

In general, Ki refers to a dissociation constant, usually derived from enzyme kinetics or from competition with a known ligand. With “20-residue peptide corresponding to the N-terminal residues of human SNAIL1”, the Ki in experiment [1] is 0.2 µM; in experiment [2], 220 µM; in experiment [3], 2.22 µM; in experiment [4] it was 210 µM.
